Values of other authors in PMC4488278.

Target: EGFR (Homo sapiens) (UniProt P00533)

Substance: EGF (from UniProt P01133)
- Kd: 1 nM
